According to PMC8486240:

B1: Probe1 unlabelled (cold competitor) (dsDNA)
DNA 1: TGAAATGATGATAAGCACATGGATATATGGCCTGGAAAAC
DNA 2: GTTTTCCAGGCCATATATCCATGTGCTTATCATCATTTCA
B2: Mutant-Probe1 (dsDNA)
DNA 1: TGAAATGATGATAAGAGTGGAGATATATGGCCTGGAAAAC
DNA 2: GTTTTCCAGGCCATATATCTCCACTCTTATCATCATTTCA

Experiments:
PpbHLH1 [1] = biological target: T1, PpbHLH1 (Prunus persica, UniProt M5W438 1-344); experiment: competition
PpbHLH1 [2] = biological target: T1, PpbHLH1; experiment: EMSA

| Binder | binding result (PpbHLH1 [1]) | binding result (PpbHLH1 [2]) |
| --- | --- | --- |
| B1 | binds |  |
| B2 |  | no binding |
